Patent US20220356255A1 (CENTESSA PHARMACEUTICALS UK, published 2022)

Assays:
human PD-L1-Fc protein [1] = molecular target: T1, human PD-L1-Fc protein (human, UniProt Q9NZQ7 19-239); experiment: ELISA, Fab on coated human PD-L1-Fc, pH 6
T1 construct: Bought from R&D Systems; also called immobilised PD-L1-Fc; not shown: Fc part of the bought fusion protein, not described

biotinylated human PD-L1 [2] = molecular target: T2, biotinylated human PD-L1 (human, UniProt Q9NZQ7 19-239, limits assumed, biotinylated (sites not given)); experiment: competition ELISA, Fab with biotinylated PD-L1 on coated PD-1-Fc, pH 6
T2 construct: Bought from R&D Systems; also called biotinylated-PD-L1; human PD-L1 biotin

human PD-L1-Fc protein [3] = molecular target: T1, human PD-L1-Fc protein; experiment: ELISA, Fab on coated human PD-L1-Fc; ratio from extrapolating an OD of 0.3 at pH 6 versus pH 7.4
biotinylated human PD-L1 [4] = molecular target: T2, biotinylated human PD-L1; experiment: competition ELISA, Fab with biotinylated PD-L1 on coated PD-1-Fc, pH 7.4
biotinylated human PD-L1 [5] = molecular target: T2, biotinylated human PD-L1; experiment: competition ELISA, Fab with biotinylated PD-L1 on coated PD-1-Fc; ratio of IC50 values
human PD-L1-Fc protein [6] = molecular target: T1, human PD-L1-Fc protein; experiment: ELISA, purified Fab on coated human PD-L1-Fc, pH 6 (FIG. 4)
human PD-L1 on cells [7] = molecular target: T3, human PD-L1 on cells (human, UniProt Q9NZQ7 19-290); experiment: flow cytometry on MDA-MB-231 cells, Krebs buffer, pH 7.4
T3 construct: Endogenous on MDA-MB-231 cells or transfected into HEK293FF cells (Sino Biological plasmid); the assay field says which; also called native PD-L1 on MDA-MB-231 cells; PD-L1 expressing MDA-MB-231 cells
Method: (§1) Anti-PD-L1 affinity matured Fabs were tested for their ability to bind to native PD-L1 in a cell line, (MDA-MB-231 cells) in a buffer resembling the tumor microenvironment (Krebs-lactate).

biotinylated human PD-L1 [8] = molecular target: T2, biotinylated human PD-L1; experiment: competition ELISA, Fab with biotinylated PD-L1 on coated PD-1-Fc, pH 6; remark: listed apart in the source
biotinylated human PD-L1 [9] = molecular target: T2, biotinylated human PD-L1; experiment: competition ELISA, Fab with biotinylated PD-L1 on coated PD-1-Fc
human PD-L1-Fc protein [10] = molecular target: T1, human PD-L1-Fc protein; experiment: ELISA, Fab on coated human PD-L1-Fc, pH 7.4; pH 7.4
human PD-L1-Fc protein [11] = molecular target: T1, human PD-L1-Fc protein; experiment: BIAcore off rate, unpurified periplasmic extract Fab on PD-L1, pH 7.4
human PD-L1 on cells [12] = molecular target: T3, human PD-L1 on cells; experiment: flow cytometry on MDA-MB-231 cells, Krebs buffer; ratio of EC50 values
Method: as §1

human PD-L1-Fc protein [13] = molecular target: T1, human PD-L1-Fc protein; experiment: BIAcore off rate, unpurified periplasmic extract Fab on PD-L1
biotinylated human PD-L1 [14] = molecular target: T2, biotinylated human PD-L1; experiment: competition ELISA, Fab with biotinylated PD-L1 on coated PD-1-Fc, pH 6.5
human PD-L1 on cells [15] = molecular target: T3, human PD-L1 on cells; experiment: flow cytometry on MDA-MB-231 cells, Krebs buffer, pH 6
Method: as §1

human PD-L1 on cells [16] = molecular target: T3, human PD-L1 on cells; experiment: flow cytometry on MDA-MB-231 cells, Krebs buffer, pH 6.5
Method: as §1

human PD-L1-Fc protein [17] = molecular target: T1, human PD-L1-Fc protein; experiment: BIAcore off rate, unpurified periplasmic extract Fab on PD-L1, pH 6
human PD-L1-Fc protein [18] = molecular target: T1, human PD-L1-Fc protein; experiment: SPR BIAcore, mAb over immobilised PD-L1-Fc, pH 6.0
human PD-L1-Fc protein [19] = molecular target: T1, human PD-L1-Fc protein; experiment: SPR BIAcore, mAb over immobilised PD-L1-Fc, pH 7.0
Method: (§2) To assess the affinity of selected IgG formatted purified clones to human PD-L1 at pH6.0 and at pH7.4, human PD-L1-Fc protein was coated by amine coupling. Surface plasmon resonance (SPR) (BIAcore 3000, GE Healthcare) was used to determine the binding kinetics of selected IgG formatted purified clones to human PD-L1 at pH6.0 and at pH 7.4. Approximately 3000 RU of human PD-L1 Fc (R&D Systems) at 50 μg/ml in Acetate buffer pH 5.0 was immobilized onto a CM5 chip using the standard amine coupling procedure. QC of the PD-L1 immobilization was performed using an anti-PD-L1 commercial antibody (R&D systems cat. no. AF156) at 2.0 μg/ml. 1×HBS-EP pH 7.4 or HBS-EP pH 7.0 or HBS-EP […] citrate buffer pH 6.5 or HBS-EP […] citrate buffer pH 6.0, were utilized as running buffers during binding kinetic measurements. […] Fitting 1:1 binding with mass transfer was applied to the curves using the BIAevaluation software to calculate the kinetic constants of the antibody-antigen interactions including association rate (ka), dissociation rate (kd) and affinity (KD).

human PD-L1-Fc protein [20] = molecular target: T1, human PD-L1-Fc protein; experiment: SPR BIAcore, mAb over immobilised PD-L1-Fc, pH 6.5
Method: as §2

human PD-L1 on cells [21] = molecular target: T3, human PD-L1 on cells; experiment: flow cytometry on MDA-MB-231 cells, Krebs buffer with lactate, pH 7.4 (FIG. 3); pH 7.4
Method: (§3) In order to mimic an acidic tumor environment milieu with tumor cells expressing PD-L1 (The metabolism of tumors in the body, Warburg et al. J Gen Physiol. 1927; 8:519-30) the following buffers were utilised: Krebs ringer bicarbonate buffer (KRB, Amsbio catalog number KRB-1000) with 1 mM lactic acid (Sigma catalog number 252476-50DG) for pH 7.4; KRB plus 15 mM lactic acid for pH 6.5 and KRB plus 20 mM lactic acid for pH 6.0). 3 fold dilutions (100 nM to 0.0005 nM; 0) of the Fabs or IgG were prepared in the respective pH buffers and incubated with 0.60E05 MDA-MB-231 cells for 60 minutes at 4° C. The cells were then washed 3× with the respective pH buffers, at 300 g for 3 min. The cells were then incubated with 50 μl of anti-human IgG (Fab specific)-FITC (Sigma, catalog number F5512-1ML) at 1:100 dilution in the respective pH buffers. Binding of the IgG or Fab to PD-L1 expressing cells was measured by FACS (Attune Nxt) and a total of 10.000 cells were acquired per sample.

human PD-L1-Fc protein [22] = molecular target: T1, human PD-L1-Fc protein; experiment: SPR BIAcore off rate, mAb over immobilised PD-L1-Fc (FIG. 2)
Method: as §2

biotinylated human PD-L1 [23] = molecular target: T2, biotinylated human PD-L1; experiment: competition ELISA, mAb with biotinylated PD-L1 on coated B7-1-Fc (CD80) (FIG. 1B); PD-L1 binding to CD80 (FIG. 1B)
human PD-L1 on cells [24] = molecular target: T3, human PD-L1 on cells; experiment: flow cytometry on MDA-MB-231 cells, Krebs buffer with lactate, pH printed as 6.6 (FIG. 3); pH printed as 6.6 (experiment described at pH 6.5); pH 6.6
Method: as §3

biotinylated human PD-L1 [25] = molecular target: T2, biotinylated human PD-L1; experiment: competition ELISA, mAb with biotinylated PD-L1 on coated PD-1-Fc (FIG. 1A); PD-L1 binding to PD-1 (FIG. 1A)
human PD-L1-Fc protein [26] = molecular target: T1, human PD-L1-Fc protein; experiment: SPR BIAcore, mAb over immobilised PD-L1-Fc, pH 7.4
Method: as §2

human PD-L1-Fc protein [27] = molecular target: T1, human PD-L1-Fc protein; experiment: SPR BIAcore, mAb over immobilised PD-L1-Fc
Method: as §2

human PD-L1 on cells [28] = molecular target: T3, human PD-L1 on cells; experiment: flow cytometry on MDA-MB-231 cells, Krebs buffer with lactate, pH 6.0 (FIG. 3); pH 6.0
Method: as §3

T3 sequence (Q9NZQ7 19-290 limits assumed): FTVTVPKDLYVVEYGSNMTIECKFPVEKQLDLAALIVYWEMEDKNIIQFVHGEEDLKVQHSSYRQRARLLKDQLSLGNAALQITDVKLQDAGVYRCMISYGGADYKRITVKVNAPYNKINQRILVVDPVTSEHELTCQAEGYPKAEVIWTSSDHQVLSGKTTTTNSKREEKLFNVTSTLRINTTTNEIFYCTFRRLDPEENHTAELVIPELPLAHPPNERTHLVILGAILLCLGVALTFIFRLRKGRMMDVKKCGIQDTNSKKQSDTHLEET
T1 sequence (Q9NZQ7 19-239 limits assumed): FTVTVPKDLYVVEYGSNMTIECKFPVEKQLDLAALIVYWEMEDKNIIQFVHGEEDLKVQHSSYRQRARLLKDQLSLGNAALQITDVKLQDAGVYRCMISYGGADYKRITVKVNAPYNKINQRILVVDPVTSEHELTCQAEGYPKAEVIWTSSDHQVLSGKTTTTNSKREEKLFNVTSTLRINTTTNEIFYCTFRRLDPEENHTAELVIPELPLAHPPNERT
T2 sequence (Q9NZQ7 19-239 limits assumed): as above

B1: Fab 8D06 (Fab, V domains shown)
VH: QVQLVQSGGGVVQPGRSLRLSCAASGFTFSSYGMYWVRQAPGKGLEWVAVISYDGSNKYYADSVKGRFTISRDNSKNTLNLQMNSLRAEDTAVYYCAKGALTHWGVVIGDGMDVWGQGTTVTVSS
VL: NFMLTQPHSVSESPGKTVTISCVLSPRTHAGHYYRWYQQRPGSSPTTVIYEDDQRPSGVPDRFSGSIDSSSNSASLTISGLKTEDEADYYCQSFDSTNPWVFGGGTKLTVL
notes: Purified Fab prepared from IgG with the Pierce kit; also called 8D06 Fab
- EC50 (human PD-L1-Fc protein [1]): 0.11 nM
- IC50 (biotinylated human PD-L1 [2]): 13.1 nM
- Ratio pH 6:7.4 (human PD-L1-Fc protein [3]): 39
- IC50 (biotinylated human PD-L1 [4]): > 100 nM
- Ratio pH 6:7.4 (biotinylated human PD-L1 [5]): > 7.63
- concentration at saturation of binding (human PD-L1-Fc protein [6]): 4 nM
- EC50 (human PD-L1 on cells [7]): 16 nM
- fold less (IC50) than the control Fab 2.7A04OPT at pH 6 (biotinylated human PD-L1 [8]): ~3 fold
- fold less inhibitory activity at pH 6.5 than at pH 6 (biotinylated human PD-L1 [9]): ~3 fold
- EC50 (human PD-L1-Fc protein [10]): > 10 nM
- koff (human PD-L1-Fc protein [11]): 0.00345 s⁻¹
- Ratio pH 6:7.4 (human PD-L1 on cells [12]): 11
- Ratio pH 6 vs 7.4 (human PD-L1-Fc protein [13]): 20
- IC50 (biotinylated human PD-L1 [14]): 40 nM
- EC50 (human PD-L1 on cells [15]): 1.45 nM
- EC50 (human PD-L1 on cells [16]): 2.92 nM
- koff (human PD-L1-Fc protein [17]): 0.000699 s⁻¹

B2: mAb 2A09 (antibody, V domains shown)
VH: QVQLVQSGGGVVQPGRSLRLSCAASGFTFSSYGMYWVRQAPGKGLEWVAVISYDGSNKYYADSVKGRFTISRDNSKNTLNLQMNSLRAEDTAVYYCAKGALTHWGVVIGDGMDVWGQGTTVTVSS
VL: NFMLTQPHSVSESPGKTVTISCTRSSGSIASNYVQWYQQRPGSSPTTVIYEDDQRPSGVPDRFSGSIDSSSNSASLTISGLKTEDEADYYCQSFDSTNPWVFGGGTKLTVL
notes: Fully human; also called 2A09_WT; 2A09 WT
- Kd (human PD-L1-Fc protein [18]): 0.13 nM
- koff (human PD-L1-Fc protein [18]): 0.000865 s⁻¹
- kon (human PD-L1-Fc protein [18]): 6.77e+06 M⁻¹ s⁻¹
- Kd (human PD-L1-Fc protein [19]): 0.57 nM
- koff (human PD-L1-Fc protein [19]): 0.00711 s⁻¹
- kon (human PD-L1-Fc protein [19]): 1.25e+07 M⁻¹ s⁻¹
- Kd (human PD-L1-Fc protein [20]): 0.18 nM
- koff (human PD-L1-Fc protein [20]): 0.00129 s⁻¹
- kon (human PD-L1-Fc protein [20]): 7.36e+06 M⁻¹ s⁻¹
- EC50 (human PD-L1 on cells [21]): 16.3 nM
- fold better off rate at pH 6.0 than at pH 7.4 (human PD-L1-Fc protein [22]): ~5 fold
- IC50 (biotinylated human PD-L1 [23]): 1.2 nM
- EC50 (human PD-L1 on cells [24]): 6.1 nM
- IC50 (biotinylated human PD-L1 [25]): 0.4 nM
- Kd (human PD-L1-Fc protein [26]): 2.6 nM
- koff (human PD-L1-Fc protein [26]): 0.0271 s⁻¹
- kon (human PD-L1-Fc protein [26]): 1.05e+07 M⁻¹ s⁻¹
- fold higher affinity at pH 6 than at pH 7.4 (human PD-L1-Fc protein [27]): ~20 fold
- EC50 (human PD-L1 on cells [28]): 2.4 nM
